For the data set, the system named is 4T1 orthotopic tumor-bearing BALB/c mice. Description: in vivo. The settings on record: mouse; for biodistribution, Blood / biodistribution, Bone / biodistribution, Brain / biodistribution, Heart / biodistribution, Kidneys / biodistribution, L. intestine / biodistribution, Liver / biodistribution, Lungs / biodistribution, Muscle / biodistribution, Pancreas / biodistribution, S. intestine / biodistribution, Skin / biodistribution, Spleen / biodistribution, Stomach / biodistribution, Tumor (4T1 tumoral uptake): iv, 4 h. As for the experimental part: 4T1 orthotopic BALB/c mouse model. The cells were removed from the flasks, concentrated, and resuspended in minimal media for cell counting. The cells were then diluted to contain approximately 1 million cells in 30 μL of media (for orthotopic allografts). Following an MSKCC Institutional Animal Care and Use Committee approved protocol, 8-10 week old BALB/c mice (Charles River Laboratories, Wilmington, MA) were surgically implanted with one million 4T1 cancer cells into the first or the last mammary fat pad of the right side of the animal using aseptic surgical techniques and sterile staple closures while the mice were under anesthetic. Additionally, mice were given injections of meloxicam (24 h pain killer) in the scruff and bupivacaine intradermally prior to surgical incisions. One day post surgery, the mice were again given meloxicam and checked to ensure that the closure was healing. Two and three days post surgery, the mice were checked to ensure that the animals were healthy and recovering well from the surgery. Five to seven days post surgery, the staples were removed. Five to nine days post surgery, the mice were injected with 50-75 μCi (0.9-0.4 nmol) of the respective radiopharmaceutical for in vivo biodistribution or 500-600 μCi (9-11 nmol) for in vivo imaging. The mice receiving ^64Cu-NOTA-pHLIP were sacrificed at 1, 2, 4, 12, 24, 36, and 48 h; the mice receiving [^18F]—AlF-NOTA-pHLIP were sacrificed at 0.5, 1, 2, 4, 6 and 8 h. The 4T1 tumors in this study were purposely used 5-9 days after inoculation to ensure lower tumoral pH. Animal models. Animal studies were conducted according to MSKCC IACUC-approved animal protocol. 4T1 (orthotopic breast cancer allografts of 1×10^6 cells surgically implanted in the mammary fat pad) and B16-F10 (orthotopic melanoma allografts of 1×10^5 cells injected intradermally on the shoulder) tumors were orthotopically inoculated in media in female BALB/c and C57Bl/6 mice (Charles River Laboratories (CRL)), respectively. Additionally, PC3 (3×10^6 cells) or LNCaP (3-6×10^6 cells) tumors were subcutaneously xenografted on the shoulder of athymic nude male mice (CRL). Mice were used once tumor volumes were approximately 90-300 mm^3. In vivo animal PET imaging and biodistribution. Mice were injected with radiolabeled NOTA-pHLIP derivatives i.v. (500-700 μCi/mouse for PET or SPECT imaging studies and 25-100 μCi/mouse for biodistribution studies). All injections were less than 200 μL with <10% EtOH in sterile PBS. PET images were obtained with the mice under anesthesia in an Inveon PET-CT or microPET Focus 120 (Siemens) at 0.5-48 h p.i. All images were analyzed using ASIPro VM (Concorde Microsystems). SPECT images were obtained with the mice under anesthesia in a NanoSPECT/CT Plus at 4-24 h p.i. All SPECT images were reconstructed using HiSPECT and analyzed using InVivoScope. Dissections for ex vivo biodistribution were performed on mice after CO2 asphyxiation or cervical dislocation while anesthetized at reported time points. Weight of the syringe prior to injection and after injection was used to determine the mass of injectate. Activity of the syringe prior to injection and after injection was used to determine the percent of injectate administered. The mass injected was corrected by the percent of radioactivity injected. Four to five aliquots (10 μL) were weighed and counted as internal standards for each study. All of the collected organs were counted using an automatic gamma counter (Wizard 3″, PerkinElmer, Waltham, MA). The total injected dose was found as the mass injected dose×fraction radioactivity injected×internal standard average counts/g. The percent injected dose (% ID) was determined as the counts for the tissue×100/total injected dose. The % ID/g was calculated as the % ID/tissue weight. The average and standard deviation of the % ID and % ID/g was determined using normal methods (n−1) for each set of mice.

For the compound `CC(C)C[C@@H](NC(=O)[C@@H](CC(C)C)NC(=O)[C@@H](CC(=O)O)NC(=O)[C@@H](CC(C)C)NC(=O)[C@@H](CC(C)C)NC(=O)[C@@H](CC(C)C)NC(=O)[C@H](NC(=O)[C@@H](CC(=O)O)NC(=O)[C@H](NC(=O)[C@H]1CCCN1C(=O)[C@@H](Cc1ccccc1)NC(=O)[C@@H](CC(C)C)NC(=O)[C@@H](CC(C)C)NC(=O)[C@@H](CC(=O)O)NC(=O)[C@@H](CC(C)C)NC(=O)[C@@H](Cc1ccc(O)cc1)NC(=O)[C@@H](C)NC(=O)[C@@H](CCCNC(=N)N)NC(=O)[C@@H](Cc1c[nH]c2ccccc12)NC(=O)[C@H]1CCCN1C(=O)[C@@H](CC(N)=O)NC(=O)[C@@H](CCC(N)=O)NC(=O)[C@@H](CC(=O)O)NC(=O)[C@@H](CC(=O)O)NC(=O)[C@@H](CS)NC(=O)[C@@H](C)NC(=S)Nc1ccc(CC2CN(CC(=O)O)CCN(CC(=O)O)CCN2CC(=O)O)cc1)[C@H](C)O)[C@H](C)O)C(=O)N[C@H](Cc1c[nH]c2ccccc12)C(=O)O` (single isomer, unassigned) [[^18F]—AlF-NOTA-Var3], the kidneys-to-large intestine ratio was 0.52±0.15; the “biodistribution, Blood” value was 2.201 ± 0.374 % ID/g; the “biodistribution, Bone” value was 0.540 ± 0.119 % ID/g; the “biodistribution, Brain” value is 0.107 ± 0.023 % ID/g. Further, the “biodistribution, Heart” value is reported as 0.78 ± 0.08 % ID/g; the “biodistribution, Kidneys” value came out at 8.237 ± 1.106 % ID/g; the “biodistribution, L. intestine” value was 22.05 ± 2.46 % ID/g; the “biodistribution, Liver” value turned out to be 0.923 ± 0.153 % ID/g. In addition, the “biodistribution, Lungs” value is 2.217 ± 0.380 % ID/g; the “biodistribution, Muscle” value is listed as 0.282 ± 0.055 % ID/g; the “biodistribution, Pancreas” value turned out to be 0.332 ± 0.020 % ID/g; the “biodistribution, S. intestine” value came out at 0.927 ± 0.152 % ID/g. The “biodistribution, Skin” value came out at 1.126 ± 0.115 % ID/g; the “biodistribution, Spleen” value was 0.469 ± 0.093 % ID/g; the “biodistribution, Stomach” value is recorded as 0.482 ± 0.223 % ID/g; the “biodistribution, Tumor (4T1 tumoral uptake)” value (from here on “biodistribution, Tumor”) is listed as 0.923 ± 0.119 % ID/g.
Turning to `CC(C)C[C@@H](NC(=O)[C@@H](CCC(=O)O)NC(=O)[C@@H](CC(C)C)NC(=O)[C@@H](CC(C)C)NC(=O)[C@@H](CC(C)C)NC(=O)[C@H](NC(=O)[C@@H](CCC(=O)O)NC(=O)[C@H](NC(=O)[C@H]1CCCN1C(=O)[C@@H](Cc1ccccc1)NC(=O)[C@@H](CC(C)C)NC(=O)[C@@H](Cc1c[nH]c2ccccc12)NC(=O)[C@@H](CCC(=O)O)NC(=O)[C@@H](CC(C)C)NC(=O)[C@@H](Cc1ccc(O)cc1)NC(=O)[C@@H](CCCNC(=N)N)NC(=O)[C@@H](C)NC(=O)[C@@H](Cc1c[nH]c2ccccc12)NC(=O)[C@H]1CCCN1C(=O)[C@@H](CC(N)=O)NC(=O)[C@@H](CCC(N)=O)NC(=O)[C@@H](CCC(=O)O)NC(=O)[C@@H](CCC(=O)O)NC(=O)[C@@H](CS)NC(=O)[C@@H](C)NC(=S)Nc1ccc(CC2CN(CC(=O)O)CCN(CC(=O)O)CCN2CC(=O)O)cc1)[C@H](C)O)[C@H](C)O)C(=O)O` (single isomer, unassigned) [[^18F]—AlF-NOTA-Var7], the kidneys-to-large intestine ratio is given as 0.55±0.19; the “biodistribution, Blood” value is on record as 2.292 ± 0.277 % ID/g; the “biodistribution, Bone” value stood at 0.571 ± 0.202 % ID/g; the “biodistribution, Brain” value turned out to be 0.118 ± 0.011 % ID/g. The “biodistribution, Heart” value came out at 0.78 ± 0.06 % ID/g; the “biodistribution, Kidneys” value came to 7.759 ± 0.658 % ID/g; the “biodistribution, L. intestine” value was determined as 22.08 ± 6.02 % ID/g; the “biodistribution, Liver” value turned out to be 1.089 ± 0.066 % ID/g. The “biodistribution, Lungs” value is given as 2.325 ± 0.212 % ID/g; the “biodistribution, Muscle” value is recorded as 0.325 ± 0.073 % ID/g; the “biodistribution, Pancreas” value is recorded as 0.373 ± 0.051 % ID/g; the “biodistribution, S. intestine” value is given as 0.776 ± 0.196 % ID/g. The “biodistribution, Skin” value worked out at 1.377 ± 0.148 % ID/g; the “biodistribution, Spleen” value turned out to be 0.485 ± 0.029 % ID/g; the “biodistribution, Stomach” value came out at 0.593 ± 0.153 % ID/g; the “biodistribution, Tumor” value worked out at 1.105 ± 0.125 % ID/g.
With `CC(C)C[C@@H](NC(=O)[C@@H](CCC(=O)O)NC(=O)[C@@H](CC(C)C)NC(=O)[C@@H](CC(C)C)NC(=O)[C@@H](CC(C)C)NC(=O)[C@H](NC(=O)[C@@H](CCC(=O)O)NC(=O)[C@H](NC(=O)[C@H]1CCCN1C(=O)[C@@H](Cc1ccccc1)NC(=O)[C@@H](CC(C)C)NC(=O)[C@@H](Cc1c[nH]c2ccccc12)NC(=O)[C@@H](CCC(=O)O)NC(=O)[C@@H](CC(C)C)NC(=O)[C@@H](Cc1ccc(O)cc1)NC(=O)[C@@H](CCCNC(=N)N)NC(=O)[C@@H](C)NC(=O)[C@@H](Cc1c[nH]c2ccccc12)NC(=O)[C@H]1CCCN1C(=O)[C@@H](CC(N)=O)NC(=O)[C@@H](CCC(N)=O)NC(=O)[C@@H](CCC(=O)O)NC(=O)[C@@H](CCC(=O)O)NC(=O)[C@@H](CSC1CC(=O)N(CCNC(=O)CN2CCN(CC(=O)O)CCN(CC(=O)O)CC2)C1=O)NC(=O)[C@@H](C)N)[C@H](C)O)[C@H](C)O)C(=O)O` (single isomer, unassigned) [^64Cu-NO2A-cysVar7, metal not drawn], the “biodistribution, Blood” value was found to be 2.31 ± 0.18 % ID/g; the “biodistribution, Bone” value is 1.57 ± 0.18 % ID/g; the “biodistribution, Brain” value is reported as 0.25 ± 0.02 % ID/g; the “biodistribution, Heart” value was 2.68 ± 0.33 % ID/g. Further, the “biodistribution, Kidneys” value is recorded as 95.5 ± 11.9 % ID/g; the “biodistribution, L. intestine” value stood at 8.19 ± 0.85 % ID/g; the “biodistribution, Liver” value is on record as 15.6 ± 1.58 % ID/g; the “biodistribution, Lungs” value amounted to 4.21 ± 0.23 % ID/g. Besides, the “biodistribution, Muscle” value was 0.64 ± 0.07 % ID/g; the “biodistribution, Pancreas” value was found to be 1.84 ± 0.10 % ID/g; the “biodistribution, S. intestine” value was determined as 6.37 ± 0.11 % ID/g; the “biodistribution, Skin” value was 2.59 ± 0.05 % ID/g. Further, the “biodistribution, Spleen” value turned out to be 3.31 ± 0.24 % ID/g; the “biodistribution, Stomach” value was 3.33 ± 0.31 % ID/g; the “biodistribution, Tumor” value was found to be 9.07 ± 1.81 % ID/g.
Consider `CC(C)C[C@@H](NC(=O)[C@@H](CC(C)C)NC(=O)[C@@H](CC(=O)O)NC(=O)[C@@H](CC(C)C)NC(=O)[C@@H](CC(C)C)NC(=O)[C@@H](CC(C)C)NC(=O)[C@H](NC(=O)[C@@H](CC(=O)O)NC(=O)[C@H](NC(=O)[C@H]1CCCN1C(=O)[C@@H](Cc1ccccc1)NC(=O)[C@@H](CC(C)C)NC(=O)[C@@H](CC(C)C)NC(=O)[C@@H](CC(=O)O)NC(=O)[C@@H](CC(C)C)NC(=O)[C@@H](Cc1ccc(O)cc1)NC(=O)[C@@H](C)NC(=O)[C@@H](CCCNC(=N)N)NC(=O)[C@@H](Cc1c[nH]c2ccccc12)NC(=O)[C@H]1CCCN1C(=O)[C@@H](CC(N)=O)NC(=O)[C@@H](CCC(N)=O)NC(=O)[C@@H](CC(=O)O)NC(=O)[C@@H](CC(=O)O)NC(=O)[C@@H](CS)NC(=O)[C@@H](C)NC(=S)Nc1ccc(CC2CN(CC(=O)O)CCN(CC(=O)O)CCN2CC(=O)O)cc1)[C@H](C)O)[C@H](C)O)C(=O)N[C@H](Cc1c[nH]c2ccccc12)C(=O)O` (single isomer, unassigned) [^64Cu-NOTA-Var3, metal not drawn], for which the “biodistribution, Blood” value is given as 1.371 ± 0.244 % ID/g; the “biodistribution, Bone” value is reported as 0.339 ± 0.018 % ID/g; the “biodistribution, Brain” value is given as 0.063 ± 0.011 % ID/g; the “biodistribution, Heart” value is given as 0.49 ± 0.05 % ID/g. Further, the “biodistribution, Kidneys” value turned out to be 7.165 ± 1.126 % ID/g; the “biodistribution, L. intestine” value is listed as 7.45 ± 2.73 % ID/g; the “biodistribution, Liver” value was 1.034 ± 0.150 % ID/g; the “biodistribution, Lungs” value is 1.420 ± 0.117 % ID/g. In addition, the “biodistribution, Muscle” value is recorded as 0.171 ± 0.017 % ID/g; the “biodistribution, Pancreas” value amounted to 0.279 ± 0.041 % ID/g; the “biodistribution, S. intestine” value is 0.320 ± 0.042 % ID/g; the “biodistribution, Skin” value came to 0.775 ± 0.102 % ID/g. For the same compound, the “biodistribution, Spleen” value is on record as 0.340 ± 0.032 % ID/g; the “biodistribution, Stomach” value worked out at 0.194 ± 0.050 % ID/g; the “biodistribution, Tumor” value is recorded as 0.649 ± 0.091 % ID/g.

Source of the values: patent publication US12551583B2, “Radiolabeled ligands for targeted PET/SPECT imaging and methods of their use” (MEMORIAL SLOAN KETTERING CANCER CENTER, priority 2016, dated 2026).
